One may read the Kd as the free concentration of one partner at which half of the binding sites on the other are occupied at equilibrium, for simple one-to-one binding.

This passage reports Kd results from publication PMC3891018 (Scientific Reports, 2014).

The assay has as its target H-ficolin (human, UniProt O75636 24-299). Put plainly: SPR. On the technique in general: Surface plasmon resonance follows binding to a sensor surface in real time, without labels.

Chain of H-ficolin (O75636 24-299): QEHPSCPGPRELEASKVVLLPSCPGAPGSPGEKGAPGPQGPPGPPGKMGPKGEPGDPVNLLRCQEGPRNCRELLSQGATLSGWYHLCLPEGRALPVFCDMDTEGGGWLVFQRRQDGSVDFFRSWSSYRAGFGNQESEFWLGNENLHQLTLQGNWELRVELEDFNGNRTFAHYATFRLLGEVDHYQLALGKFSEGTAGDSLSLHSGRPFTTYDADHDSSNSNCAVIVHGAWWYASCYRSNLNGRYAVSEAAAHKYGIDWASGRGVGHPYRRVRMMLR

Regarding DTLMISRTPEVTCVV [nIgG peptide DTLMISRTPEVTCVV 278-292 (peptide 1)], the Kd was ~1000 nM. Consider LTCLVKGFYPSDI [nIgG peptide LTCLVKGFYPSDI 394-406 (peptide 6)], for which the Kd is ~1000 nM.
